Positions count from the first letter of the chain named. Like-named read-outs stand apart in the source and are kept apart here.
Tests used:
[1] = biological target: T1, EphA4 ligand-binding domain (human, amino acids 22-203) (human, UniProt P54764, biotin on primary amines (EZ link NHS biotin) in the AlphaScreen assays only)
[2] = biological target: T1, EphA4 ligand-binding domain (human, …); test: SPR; Biacore T200; EphA4 LBD amine-coupled to CM5 chip (300 RU); Nbs (1-300 nM) as analyte, 60 μl/min; 10 mM Hepes, 150 mM NaCl, 3 mM EDTA, 0.01 mM Surfactant P-20, pH 7.35; two-state model; details: both partners purified
[3] = biological target: T2, human EphA4-Fc (R&D Systems) (Homo sapiens, UniProt P54764); test: co-IP; Nb on anti-HA magnetic Dynabeads used to capture recombinant EphA4; EphA4 detected with N-terminal anti-EphA4 antibody; details: both partners purified
T2 construct: EphA4, human; the results call it 'full-length recombinant' receptor, the methods an EphA4-hFc fusion protein from R&D Systems; also called hEphA4-Fc; EphA4-hFc; source: bought: R&D Systems
T2 sequence (P54764 20-547): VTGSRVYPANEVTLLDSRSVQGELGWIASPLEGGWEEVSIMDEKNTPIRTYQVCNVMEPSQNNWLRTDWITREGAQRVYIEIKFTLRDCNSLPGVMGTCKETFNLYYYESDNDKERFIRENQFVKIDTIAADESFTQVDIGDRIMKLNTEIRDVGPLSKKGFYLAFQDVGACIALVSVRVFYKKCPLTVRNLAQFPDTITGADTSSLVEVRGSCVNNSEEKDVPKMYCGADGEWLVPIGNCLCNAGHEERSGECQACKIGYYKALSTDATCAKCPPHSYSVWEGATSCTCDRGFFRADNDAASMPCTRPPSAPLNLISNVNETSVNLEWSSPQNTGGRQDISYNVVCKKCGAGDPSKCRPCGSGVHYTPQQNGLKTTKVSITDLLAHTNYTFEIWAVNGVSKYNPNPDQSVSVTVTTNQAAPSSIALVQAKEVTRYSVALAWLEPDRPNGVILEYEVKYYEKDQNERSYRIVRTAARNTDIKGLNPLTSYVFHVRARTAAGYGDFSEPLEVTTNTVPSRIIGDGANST

[4] = biological target: T3, mouse EphA4-Fc (R&D Systems) (mouse, UniProt Q03137); test: co-IP; 2.5 μg recombinant mouse or human EphA4 protein (or recombinant ephrin-B2 as negative control) on protein G magnetic Dynabeads, 1 μg Nb overnight at 4 °C, PBS washes; Nb detected with anti-HA; details: both partners purified
T3 construct: EphA4, mouse; the results call it 'full-length recombinant' receptor, the methods an EphA4-hFc fusion protein from R&D Systems; also called mEphA4-Fc; EphA4-hFc (mouse); source: bought: R&D Systems
T3 sequence (Q03137 20-547): as the sequence (P54764 20-547) above, with P59A, N121S, V124G, R250Q, S251N, T270S, K378R, N406S counted along it

[5] = biological target: T4, mouse recombinant EphA3 (Fc-tagged; R&D Systems) (mouse, UniProt P29319); test: AlphaScreen or HTRF; biotinylated Nbs (100 nM) with subhooking concentrations (10-100 nM) of mouse Fc-tagged Eph receptors; anti-IgG AlphaLISA acceptor and streptavidin donor beads; 50 mM Hepes, 100 mM NaCl, 0.1% Triton, 0.1% BSA; room temperature; details: both partners purified
T4 construct: EphA3, mouse, recombinant, Fc-tagged; source: bought: R&D Systems
T4 sequence (P29319 21-540): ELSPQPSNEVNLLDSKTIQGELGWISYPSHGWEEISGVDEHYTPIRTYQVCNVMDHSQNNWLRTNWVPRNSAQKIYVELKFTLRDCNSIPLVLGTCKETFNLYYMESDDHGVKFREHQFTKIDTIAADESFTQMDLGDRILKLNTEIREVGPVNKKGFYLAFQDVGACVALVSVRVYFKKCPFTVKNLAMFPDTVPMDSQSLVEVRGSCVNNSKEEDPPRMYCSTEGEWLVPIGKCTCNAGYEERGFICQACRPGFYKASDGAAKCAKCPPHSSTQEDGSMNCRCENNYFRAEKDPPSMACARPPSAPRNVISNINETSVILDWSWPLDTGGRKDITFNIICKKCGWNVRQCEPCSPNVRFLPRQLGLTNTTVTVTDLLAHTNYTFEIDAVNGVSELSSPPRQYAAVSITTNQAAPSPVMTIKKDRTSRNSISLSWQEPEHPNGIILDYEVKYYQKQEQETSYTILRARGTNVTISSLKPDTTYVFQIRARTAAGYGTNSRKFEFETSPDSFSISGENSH

[6] = biological target: T5, mouse recombinant EphA7 (Fc-tagged; R&D Systems) (mouse, UniProt Q61772); test: as above; details: both partners purified
T5 construct: EphA7, mouse, recombinant, Fc-tagged; source: bought: R&D Systems
T5 sequence (Q61772 28-555): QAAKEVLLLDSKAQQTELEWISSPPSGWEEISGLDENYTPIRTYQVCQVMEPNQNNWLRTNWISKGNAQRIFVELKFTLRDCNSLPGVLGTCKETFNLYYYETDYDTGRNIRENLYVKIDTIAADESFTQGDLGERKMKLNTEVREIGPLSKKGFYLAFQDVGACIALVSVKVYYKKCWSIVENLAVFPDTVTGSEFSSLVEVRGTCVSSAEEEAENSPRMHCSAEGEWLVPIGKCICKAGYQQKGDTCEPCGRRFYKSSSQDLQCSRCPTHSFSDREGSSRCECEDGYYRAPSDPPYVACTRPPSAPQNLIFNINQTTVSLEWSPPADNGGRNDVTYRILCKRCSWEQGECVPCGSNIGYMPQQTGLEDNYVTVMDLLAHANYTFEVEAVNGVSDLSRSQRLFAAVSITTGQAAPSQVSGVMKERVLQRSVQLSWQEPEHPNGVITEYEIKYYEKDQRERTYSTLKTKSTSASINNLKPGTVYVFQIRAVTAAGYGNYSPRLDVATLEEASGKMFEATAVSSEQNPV

[7] = biological target: T6, ephrin-B2 (Fc-tagged; R&D Systems) (UniProt P52799); test: co-IP; 2.5 μg recombinant mouse or human EphA4 protein (or recombinant ephrin-B2 as negative control) on protein G magnetic Dynabeads, 1 μg Nb overnight at 4 °C, PBS washes; Nb detected with anti-HA; details: both partners purified
T6 construct: ephrin-B2, recombinant, Fc-tagged (R&D Systems); also called recombinant ephrin-B2; ephrin-B2 ligand; source: bought: R&D Systems
T6 sequence (P52799 28-229): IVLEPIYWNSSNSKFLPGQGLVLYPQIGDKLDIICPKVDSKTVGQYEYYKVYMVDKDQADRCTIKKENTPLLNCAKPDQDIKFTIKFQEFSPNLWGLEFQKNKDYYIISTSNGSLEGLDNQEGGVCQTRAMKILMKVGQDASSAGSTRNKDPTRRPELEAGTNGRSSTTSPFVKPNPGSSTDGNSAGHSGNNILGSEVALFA

[8] = biological target: T2, human EphA4-Fc (R&D Systems); test: SPR; Biacore T200; EphA4-hFc (human or mouse) captured (~500 RU) on anti-human Fc antibody; Nbs as analyte; 10 mM Hepes, 150 mM NaCl, 3 mM EDTA, 0.01 mM Surfactant P-20, pH 7.35; 1:1 or two-state model; details: both partners purified
[9] = biological target: T3, mouse EphA4-Fc (R&D Systems); test: as above; details: both partners purified
[10] = biological target: T1, EphA4 ligand-binding domain (human, …); test: cell-based or functional assay
[11] = biological target: T3, mouse EphA4-Fc (R&D Systems); test: co-IP; Nb on anti-HA magnetic Dynabeads used to capture recombinant EphA4; EphA4 detected with N-terminal anti-EphA4 antibody; details: both partners purified
[12] = biological target: T7, human EphA7 (recombinant, EphA7/ephrin-A5 competition assay) (Homo sapiens, UniProt Q15375); test: AlphaScreen or HTRF; competition: human EphA7 (3 nM) preincubated 1 h with increasing Nb, then biotinylated His-tagged human ephrin-A5 (30 nM); anti-IgG acceptor and streptavidin donor beads; 50 mM Hepes, 100 mM NaCl, 0.1% Triton, 0.1% BSA; details: both partners purified
T7 construct: EphA7, human; Probably an Fc chimera of the extracellular domain, since anti-IgG acceptor beads were used
T7 sequence (Q15375 28-998): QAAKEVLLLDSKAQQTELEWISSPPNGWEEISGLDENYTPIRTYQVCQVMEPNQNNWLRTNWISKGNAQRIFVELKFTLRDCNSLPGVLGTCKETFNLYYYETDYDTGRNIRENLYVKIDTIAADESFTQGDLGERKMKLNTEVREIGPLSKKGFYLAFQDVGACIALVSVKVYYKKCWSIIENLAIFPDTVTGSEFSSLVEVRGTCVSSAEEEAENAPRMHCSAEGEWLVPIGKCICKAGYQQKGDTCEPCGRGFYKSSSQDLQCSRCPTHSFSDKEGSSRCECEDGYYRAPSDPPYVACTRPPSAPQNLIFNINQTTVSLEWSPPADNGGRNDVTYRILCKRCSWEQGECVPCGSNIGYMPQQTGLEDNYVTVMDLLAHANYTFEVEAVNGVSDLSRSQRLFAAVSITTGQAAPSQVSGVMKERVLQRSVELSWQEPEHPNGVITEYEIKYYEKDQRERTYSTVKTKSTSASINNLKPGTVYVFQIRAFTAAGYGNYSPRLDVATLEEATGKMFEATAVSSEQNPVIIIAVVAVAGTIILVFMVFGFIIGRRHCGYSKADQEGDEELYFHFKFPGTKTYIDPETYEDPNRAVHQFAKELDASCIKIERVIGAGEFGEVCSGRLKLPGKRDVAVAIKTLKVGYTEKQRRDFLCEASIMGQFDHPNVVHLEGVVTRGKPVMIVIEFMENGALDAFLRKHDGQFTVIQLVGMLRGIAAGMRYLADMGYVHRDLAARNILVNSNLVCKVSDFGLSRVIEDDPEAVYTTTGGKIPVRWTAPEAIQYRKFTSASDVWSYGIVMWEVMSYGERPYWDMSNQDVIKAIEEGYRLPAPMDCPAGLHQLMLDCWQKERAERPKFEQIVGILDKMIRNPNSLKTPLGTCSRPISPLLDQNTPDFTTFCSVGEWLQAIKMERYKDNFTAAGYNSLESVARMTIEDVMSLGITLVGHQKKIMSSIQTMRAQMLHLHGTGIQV

[13] = biological target: T2, human EphA4-Fc (R&D Systems); test: co-IP; 2.5 μg recombinant mouse or human EphA4 protein (or recombinant ephrin-B2 as negative control) on protein G magnetic Dynabeads, 1 μg Nb overnight at 4 °C, PBS washes; Nb detected with anti-HA; details: both partners purified
[14] = biological target: T8, mouse recombinant EphA6 (Fc-tagged; R&D Systems) (mouse, UniProt Q62413); test: AlphaScreen or HTRF; biotinylated Nbs (100 nM) with subhooking concentrations (10-100 nM) of mouse Fc-tagged Eph receptors; anti-IgG AlphaLISA acceptor and streptavidin donor beads; 50 mM Hepes, 100 mM NaCl, 0.1% Triton, 0.1% BSA; room temperature; details: both partners purified
T8 construct: EphA6, mouse, recombinant, Fc-tagged; source: bought: R&D Systems
T8 sequence (Q62413 23-549): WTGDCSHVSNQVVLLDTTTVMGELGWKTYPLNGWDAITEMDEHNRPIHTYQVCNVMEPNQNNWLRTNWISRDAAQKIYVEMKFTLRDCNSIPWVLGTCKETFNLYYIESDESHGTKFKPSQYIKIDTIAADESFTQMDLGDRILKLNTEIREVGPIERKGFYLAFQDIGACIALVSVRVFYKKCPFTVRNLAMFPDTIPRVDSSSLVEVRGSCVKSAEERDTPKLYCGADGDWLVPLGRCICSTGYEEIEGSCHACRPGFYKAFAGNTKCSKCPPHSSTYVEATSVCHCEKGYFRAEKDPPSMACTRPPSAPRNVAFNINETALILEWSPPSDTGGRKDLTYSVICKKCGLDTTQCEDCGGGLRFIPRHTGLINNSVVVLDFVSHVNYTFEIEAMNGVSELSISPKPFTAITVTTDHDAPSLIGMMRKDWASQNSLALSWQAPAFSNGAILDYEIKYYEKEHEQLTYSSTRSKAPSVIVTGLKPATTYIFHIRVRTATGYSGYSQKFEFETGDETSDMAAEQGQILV

[15] = biological target: T9, mouse recombinant EphA8 (Fc-tagged; R&D Systems) (mouse, UniProt O09127); test: as above; details: both partners purified
T9 construct: EphA8, mouse, recombinant, Fc-tagged; source: bought: R&D Systems
T9 sequence (O09127 27-541): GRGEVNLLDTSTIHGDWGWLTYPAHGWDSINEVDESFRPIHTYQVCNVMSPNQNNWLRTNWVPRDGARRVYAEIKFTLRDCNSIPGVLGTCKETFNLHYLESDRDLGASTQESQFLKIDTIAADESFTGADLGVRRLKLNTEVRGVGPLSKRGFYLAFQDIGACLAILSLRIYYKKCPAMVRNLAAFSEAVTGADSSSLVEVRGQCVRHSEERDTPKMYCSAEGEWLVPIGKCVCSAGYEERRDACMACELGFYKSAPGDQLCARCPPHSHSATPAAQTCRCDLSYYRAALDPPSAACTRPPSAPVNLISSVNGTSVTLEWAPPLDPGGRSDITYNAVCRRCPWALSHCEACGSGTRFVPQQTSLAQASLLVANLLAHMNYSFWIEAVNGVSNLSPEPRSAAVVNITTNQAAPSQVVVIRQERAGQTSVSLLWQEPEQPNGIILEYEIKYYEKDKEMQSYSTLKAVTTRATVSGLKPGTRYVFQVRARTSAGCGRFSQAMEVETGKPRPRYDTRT

T1 sequence (P54764 22-203): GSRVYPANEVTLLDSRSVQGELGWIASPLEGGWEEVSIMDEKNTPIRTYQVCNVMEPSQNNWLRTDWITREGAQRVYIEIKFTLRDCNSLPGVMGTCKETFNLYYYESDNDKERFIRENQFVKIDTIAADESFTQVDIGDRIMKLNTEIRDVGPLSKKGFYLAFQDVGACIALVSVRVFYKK

B1: Nb 16 (VHH)
VHH: QVQLQESGGGLVQPGGSLRLSCAASGFTFSNYAMSWVRQAPGKGLEWVSGINKGGGSAYYSDSVKGRFTISRDNAENTLYLQMNNLKPEDTAVYYCVIPWGLGSNEYDYWGQGTQVTVSS
binding result [1]: binds

B2: Nb 34 (VHH)
VHH: QVQLQESGGGLVQAGGSLRLSCAASGFTFSSYAMSWVRQAPGKGLEWVSGINTGGGSTYYADSVKGRFTISRDNAKNTLYLQMNSLKSEDTAVYYCVPRVGVLEGLTSFGSWGQGTQVTVSS
notes: Cloned in the phagemid pMECS; Same clonal group as Nb 47; also called Nanobody 34; source: E. coli WK6, periplasmic extract, purified (His GraviTrap, Sephadex G25)
binding result [2]: no binding (tested: 1–300 nM)

B3: Nb 47 (VHH)
VHH: B2 VHH with A14P
notes: Cloned in the phagemid pMECS; Same clonal group as Nb 34; also called Nanobody 47; source: E. coli WK6, periplasmic extract, purified (His GraviTrap, Sephadex G25)
binding result [2]: no binding (tested: 1–300 nM)

B4: Nb 57 (VHH)
VHH: QVQLQESGGGLVQPGGSLRLSCAASGFTFSSYYMYWVRQAPGKGLEWVSTINTGGGSTNYADSVKGRFIISRDNAKNTVYLQMNSLKPEDTAVYYCNAFAAGWGPDYWGQGTQVTVSS
notes: Cloned in the phagemid pMECS; Same clonal group as Nb 19; also called Nanobody 57; source: E. coli WK6, periplasmic extract, purified (His GraviTrap, Sephadex G25)
binding result [3]: binds
binding result [2]: binds
binding result [4]: binds
binding result [5]: binds
binding result [6]: binds

B5: Nb 19 (VHH)
VHH: QVQLQESGGGLVQPGGSLRLSCAATGRNFNAYSIAWFRQAPGKEREFVASINWSGSNTYYAVAVKGRFTTSRDNAKNTVYLQMNSLKPEDTAVYYCNAFAAGWGPDYWGQGTQVTVSS
notes: Cloned in the phagemid pMECS; Same clonal group as Nb 57; also called Nanobody 19; source: E. coli WK6, periplasmic extract, purified (His GraviTrap, Sephadex G25)
binding result [2]: binds

B6: Nb 90 (VHH)
VHH: QVQLQESGGGLVQPGGSLRLSCAASGFTFSSHWIYWVRQAPGKQRELVAAITSGGSTNYADSVKGRFTISRDNAKNTVFLQMNSLKPEDTAVYYCNAWGFLLGDIEDYWGQGTQVTVSS
binding result [1]: binds

B7: Nb 60 (VHH)
VHH: B6 VHH with S31R, H32Y, S53R, G54N, S56V, R71T, N73D, A74N, F79Y, P87S
notes: Cloned in the phagemid pMECS; Same clonal group as Nb 90; also called Nanobody 60; source: E. coli WK6, periplasmic extract, purified (His GraviTrap, Sephadex G25)
binding result [2]: binds
binding result [7]: binds
binding result [8]: binds
binding result [9]: binds

B8: Nb 39 (VHH)
VHH: QVQLQESGGGLVQPGGSLKLSCAASGFTFSTYAMSWVRQAPGKGLEWVSRINSGGGYTWHADSVKGRFTISRDNARNTVYLQMNNLKPEDTAVYYCTNLNTGWRPEYWGQGTQVTVSS
notes: Cloned in the phagemid pMECS; also called Nanobody 39; source: E. coli WK6, periplasmic extract, purified (His GraviTrap, Sephadex G25)
IC50 of inhibition of ephrin-A1-induced EphA4 phosphorylation (PathHunter assay, EphA4-expressing U2OS cells); blocks ephrin-A1 with EphA4 [10]: 0.17 µM
binding result [11]: binds
binding result [12]: binds

B9: Nb 22 (VHH)
VHH: QVQLQESGGGPVRAGESLRLSCTASGRAFSTYTMGWFRQAPGKERELVAVITPGGNTNYADSVKGRFTISRDDAKNTVYLQMNSLKPVDTAVYYCHVVLAVVGTGNEYDVWGQGTQVTVSS
notes: Cloned in the phagemid pMECS; also called Nanobody 22; source: E. coli WK6, periplasmic extract, purified (His GraviTrap, Sephadex G25)
binding result [2]: binds
binding result [13]: binds
fold difference in binding affinity between human and mouse EphA4 [9]: 2 fold

B10: Nb 10 (VHH)
VHH: QVQLQESGGGLVQAGGSLRLSCAASGRTFSSYAMGWFRQAPGTKREMIAAVTKAGTTSYANPVKGRFTISRDDAKNMVYLQMNNLKPEDSAVYYCNAISPLWDEYDFWGPGTQVTVSS
binding result [1]: binds

B11: Nb 31 (VHH)
VHH: B10 VHH with R27F, T28A, F29S, S30D, S31A, M34I, T56A, S58N
notes: Cloned in the phagemid pMECS; Same clonal group as Nb 50, 10 and 53; also called Nanobody 31; source: E. coli WK6, periplasmic extract, purified (His GraviTrap, Sephadex G25)
binding result [11]: binds
binding result [2]: binds
binding result [13]: binds

B12: Nb 53 (VHH)
VHH: B10 VHH with L11V, T28A, K53R, S58N
notes: Cloned in the phagemid pMECS; Same clonal group as Nb 31, 50 and 10; also called Nanobody 53; source: E. coli WK6, periplasmic extract, purified (His GraviTrap, Sephadex G25)
IC50 of inhibition of ephrin-A1-induced EphA4 phosphorylation (PathHunter assay, EphA4-expressing U2OS cells); blocks ephrin-A1 with EphA4 [10]: 0.261 µM
binding result [11]: binds
binding result [12]: binds

B13: Nb 50 (VHH)
VHH: B10 VHH with S30N, M34E, G35A, T43K, K44E, S58N
notes: Cloned in the phagemid pMECS; Same clonal group as Nb 31, 10 and 53; also called Nanobody 50; source: E. coli WK6, periplasmic extract, purified (His GraviTrap, Sephadex G25)
binding result [3]: binds
binding result [11]: binds
binding result [2]: binds
binding result [5]: binds
binding result [14]: binds
binding result [6]: binds
binding result [15]: binds

B14: Nb 71 (VHH)
VHH: QVQLQESGGGLVQPGGSLRLSCAASGFTFSSYWMYWVRQTPGKGLEWVSGINSPGSITGYADSVKGRFTISRDNAKNTLYLQMNSLKSDDTAVYYCARDLTYGGNSLRYIERGQGTQVTVSS
binding result [1]: binds

B15: Nb 28 (VHH)
VHH: QVQLQESGGGLVQAGGSLRLSCAASGFTFSSNWMYWVRQAPGKGLEWVSGINSGGSSTYYSDSVKGRFTISRDNAKNTLYLQMNSLKPEDTAVYYCAKYSGSYYYRRGPGTQVTVSS
binding result [1]: binds

From paper PMC5500810, “Identification and characterization of Nanobodies targeting the EphA4 receptor” (The Journal of Biological Chemistry, 2017)
